US20240261333A1, “NOVEL TARGETS FOR ENHANCING ANTI-TUMOR IMMUNITY” (THE BROAD INSTITUTE, INC., priority 2021, published 2024)

Tests used:
KHDRBS1 (human) = KHDRBS1 (human) (UniProt Q07666); experiment: IgG control IP from lysate of cells overexpressing N-FLAG B3GNT2, then mass spectrometry
PABPC1 (human) = PABPC1 (human) (UniProt P11940); experiment: as above
CAPRIN1 (human) = CAPRIN1 (human) (UniProt Q14444); experiment: as above
EIF3I (human) = EIF3I (human) (UniProt Q13347); experiment: as above
Sequence of EIF3I (human) (Q13347 whole entry): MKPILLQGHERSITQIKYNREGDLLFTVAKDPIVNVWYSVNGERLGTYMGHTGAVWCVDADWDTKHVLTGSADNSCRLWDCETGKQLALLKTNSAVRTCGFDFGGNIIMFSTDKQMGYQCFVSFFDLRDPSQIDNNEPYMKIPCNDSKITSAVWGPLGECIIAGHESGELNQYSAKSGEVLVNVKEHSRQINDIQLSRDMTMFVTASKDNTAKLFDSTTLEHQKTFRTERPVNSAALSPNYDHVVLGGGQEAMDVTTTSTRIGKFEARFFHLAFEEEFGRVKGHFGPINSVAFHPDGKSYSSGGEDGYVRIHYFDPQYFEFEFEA

ANXA2 (human) = ANXA2 (human) (UniProt P07355); experiment: as above
SUPT16H (human) = SUPT16H (human) (UniProt Q9Y5B9); experiment: as above
FLG (human) = FLG (human) (UniProt P20930); experiment: control IP with IgG, lysate of cells with N-FLAG B3GNT2, mass spectrometry
GSN (human) = GSN (human) (UniProt P06396); experiment: as above
TPM3 (human) = TPM3 (human) (UniProt P06753); experiment: as above
RACK1 (human) = RACK1 (human) (UniProt P63244); experiment: as above
RPL23 (human) = RPL23 (human) (UniProt P62829); experiment: as above
TELO2 (human) = TELO2 (human) (UniProt Q9Y4R8); experiment: as above
Sequence of TELO2 (human) (Q9Y4R8 whole entry): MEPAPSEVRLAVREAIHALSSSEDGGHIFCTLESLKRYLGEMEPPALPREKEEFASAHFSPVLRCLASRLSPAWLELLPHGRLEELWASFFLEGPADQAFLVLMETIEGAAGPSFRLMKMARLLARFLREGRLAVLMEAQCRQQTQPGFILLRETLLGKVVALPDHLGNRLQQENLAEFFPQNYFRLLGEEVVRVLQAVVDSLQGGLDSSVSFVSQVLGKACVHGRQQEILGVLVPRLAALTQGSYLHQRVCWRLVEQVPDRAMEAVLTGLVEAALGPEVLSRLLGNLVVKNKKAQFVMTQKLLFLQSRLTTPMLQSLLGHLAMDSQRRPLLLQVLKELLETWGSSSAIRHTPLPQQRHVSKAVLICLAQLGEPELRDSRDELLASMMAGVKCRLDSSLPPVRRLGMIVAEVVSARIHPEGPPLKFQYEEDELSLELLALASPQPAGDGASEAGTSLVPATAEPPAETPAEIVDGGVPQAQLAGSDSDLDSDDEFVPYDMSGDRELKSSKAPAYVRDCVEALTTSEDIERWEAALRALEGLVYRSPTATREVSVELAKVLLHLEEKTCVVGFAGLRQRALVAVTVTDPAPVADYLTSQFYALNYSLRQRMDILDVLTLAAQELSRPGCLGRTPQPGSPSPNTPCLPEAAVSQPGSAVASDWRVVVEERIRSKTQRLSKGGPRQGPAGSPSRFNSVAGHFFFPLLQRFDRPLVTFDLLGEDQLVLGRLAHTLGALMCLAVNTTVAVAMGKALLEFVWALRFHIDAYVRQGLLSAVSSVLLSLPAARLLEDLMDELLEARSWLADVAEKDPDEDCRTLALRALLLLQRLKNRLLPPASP

YBX1 (human) = YBX1 (human) (UniProt P67809); experiment: as above
MAP4 (human) = MAP4 (human) (UniProt P27816); experiment: as above
DDX1 (human) = DDX1 (human) (UniProt Q92499); experiment: as above
GEMIN4 (human) = GEMIN4 (human) (UniProt P57678); experiment: as above
Sequence of GEMIN4 (human) (P57678 whole entry): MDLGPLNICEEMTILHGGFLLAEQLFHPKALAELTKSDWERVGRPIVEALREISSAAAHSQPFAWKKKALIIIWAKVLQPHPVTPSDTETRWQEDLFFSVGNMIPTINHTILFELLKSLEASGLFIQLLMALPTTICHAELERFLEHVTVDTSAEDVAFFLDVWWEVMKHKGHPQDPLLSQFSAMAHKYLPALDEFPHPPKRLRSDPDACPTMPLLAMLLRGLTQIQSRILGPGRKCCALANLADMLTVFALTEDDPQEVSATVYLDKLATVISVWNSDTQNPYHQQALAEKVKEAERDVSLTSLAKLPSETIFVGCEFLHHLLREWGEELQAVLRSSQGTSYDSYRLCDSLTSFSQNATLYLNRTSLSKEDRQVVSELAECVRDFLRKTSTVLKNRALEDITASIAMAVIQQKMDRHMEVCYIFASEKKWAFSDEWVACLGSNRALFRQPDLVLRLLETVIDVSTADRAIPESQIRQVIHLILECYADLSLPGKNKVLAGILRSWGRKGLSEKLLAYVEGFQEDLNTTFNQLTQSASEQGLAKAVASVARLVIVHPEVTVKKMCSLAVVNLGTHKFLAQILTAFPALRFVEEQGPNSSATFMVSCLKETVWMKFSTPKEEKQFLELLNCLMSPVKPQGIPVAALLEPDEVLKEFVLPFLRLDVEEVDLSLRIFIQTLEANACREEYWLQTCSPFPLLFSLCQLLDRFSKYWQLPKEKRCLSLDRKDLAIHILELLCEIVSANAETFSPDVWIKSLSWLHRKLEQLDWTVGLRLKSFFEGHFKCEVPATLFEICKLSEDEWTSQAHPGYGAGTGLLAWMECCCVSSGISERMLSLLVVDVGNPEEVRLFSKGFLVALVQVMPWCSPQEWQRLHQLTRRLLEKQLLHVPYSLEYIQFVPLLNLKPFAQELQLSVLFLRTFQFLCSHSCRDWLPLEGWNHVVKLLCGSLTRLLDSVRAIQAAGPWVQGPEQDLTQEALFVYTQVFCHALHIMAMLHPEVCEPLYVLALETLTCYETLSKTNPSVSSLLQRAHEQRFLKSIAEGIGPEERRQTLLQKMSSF

SYNM (human) = SYNM (human) (UniProt O15061); experiment: as above
RPS26 (human) = RPS26 (human) (UniProt P62854); experiment: as above
TBL2 (human) = TBL2 (human) (UniProt Q9Y4P3); experiment: as above
Sequence of TBL2 (human) (Q9Y4P3 whole entry): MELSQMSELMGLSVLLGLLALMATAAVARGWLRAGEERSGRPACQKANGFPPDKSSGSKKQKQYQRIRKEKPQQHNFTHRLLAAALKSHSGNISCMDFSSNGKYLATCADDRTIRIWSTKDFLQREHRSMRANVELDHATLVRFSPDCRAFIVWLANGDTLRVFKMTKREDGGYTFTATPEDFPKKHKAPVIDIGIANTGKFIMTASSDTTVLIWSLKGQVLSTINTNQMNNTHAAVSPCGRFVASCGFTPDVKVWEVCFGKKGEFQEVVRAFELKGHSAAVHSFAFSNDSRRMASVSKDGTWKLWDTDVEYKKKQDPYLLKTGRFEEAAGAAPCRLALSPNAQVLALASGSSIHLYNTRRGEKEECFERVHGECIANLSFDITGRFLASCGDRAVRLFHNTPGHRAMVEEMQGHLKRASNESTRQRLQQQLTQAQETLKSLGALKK

RPS27A (human) = RPS27A (human) (UniProt P62979); experiment: as above
DHX9 (human) = DHX9 (human) (UniProt Q08211); experiment: as above
SYNCRIP (human) = SYNCRIP (human) (UniProt O60506); experiment: as above
RPL8 (human) = RPL8 (human) (UniProt P62917); experiment: as above
YTHDF2 (human) = molecular target: T1, YTHDF2 (human) (UniProt Q9Y5A9); experiment: as above
T1 sequence (looked up): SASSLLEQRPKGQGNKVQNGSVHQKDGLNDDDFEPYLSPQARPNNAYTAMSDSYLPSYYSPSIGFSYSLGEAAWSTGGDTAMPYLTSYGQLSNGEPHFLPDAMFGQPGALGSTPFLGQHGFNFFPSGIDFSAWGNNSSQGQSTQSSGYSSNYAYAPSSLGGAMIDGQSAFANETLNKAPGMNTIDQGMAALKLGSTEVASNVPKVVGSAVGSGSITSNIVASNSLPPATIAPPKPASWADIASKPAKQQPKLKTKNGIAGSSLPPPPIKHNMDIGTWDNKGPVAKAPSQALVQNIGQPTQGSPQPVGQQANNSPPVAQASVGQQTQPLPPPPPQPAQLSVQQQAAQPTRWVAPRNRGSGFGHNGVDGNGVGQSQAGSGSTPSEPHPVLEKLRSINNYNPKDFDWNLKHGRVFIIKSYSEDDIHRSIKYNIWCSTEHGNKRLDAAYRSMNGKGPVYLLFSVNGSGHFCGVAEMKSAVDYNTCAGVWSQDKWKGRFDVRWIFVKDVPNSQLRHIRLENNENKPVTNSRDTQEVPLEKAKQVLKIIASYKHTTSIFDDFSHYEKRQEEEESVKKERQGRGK

HNRNPM (human) = HNRNPM (human) (UniProt P52272); experiment: as above
RHOT2 (human) = RHOT2 (human) (UniProt Q8IXI1); experiment: as above
Sequence of RHOT2 (human) (Q8IXI1 whole entry): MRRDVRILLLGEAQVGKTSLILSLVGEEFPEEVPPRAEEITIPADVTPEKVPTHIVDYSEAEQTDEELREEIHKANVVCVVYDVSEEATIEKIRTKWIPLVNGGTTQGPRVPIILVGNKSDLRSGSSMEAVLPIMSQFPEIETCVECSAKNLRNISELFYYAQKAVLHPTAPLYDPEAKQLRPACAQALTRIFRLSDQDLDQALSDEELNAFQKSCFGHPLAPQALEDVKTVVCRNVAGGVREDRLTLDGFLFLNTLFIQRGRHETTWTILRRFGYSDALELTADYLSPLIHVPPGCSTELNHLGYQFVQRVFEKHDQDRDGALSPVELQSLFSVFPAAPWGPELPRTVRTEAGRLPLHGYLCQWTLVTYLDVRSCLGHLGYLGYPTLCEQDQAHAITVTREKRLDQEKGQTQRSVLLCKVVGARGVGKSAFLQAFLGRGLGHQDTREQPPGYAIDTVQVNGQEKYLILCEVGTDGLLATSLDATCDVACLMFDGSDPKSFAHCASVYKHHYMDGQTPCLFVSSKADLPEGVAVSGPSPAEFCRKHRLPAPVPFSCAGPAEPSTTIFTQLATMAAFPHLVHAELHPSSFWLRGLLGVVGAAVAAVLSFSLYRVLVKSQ

S100A7 (human) = S100A7 (human) (UniProt P31151); experiment: as above
Sequence of S100A7 (human) (P31151 2-101 limits assumed): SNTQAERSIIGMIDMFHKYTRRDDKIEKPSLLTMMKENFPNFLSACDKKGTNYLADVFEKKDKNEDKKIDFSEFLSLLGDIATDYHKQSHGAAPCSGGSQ

EIF3A (human) = EIF3A (human) (UniProt Q14152); experiment: as above
EMILIN1 (human) = EMILIN1 (human) (UniProt Q9Y6C2); experiment: as above
CHCHD3 (human) = CHCHD3 (human) (UniProt Q9NX63); experiment: as above
Sequence of CHCHD3 (human) (Q9NX63 2-227 limits assumed): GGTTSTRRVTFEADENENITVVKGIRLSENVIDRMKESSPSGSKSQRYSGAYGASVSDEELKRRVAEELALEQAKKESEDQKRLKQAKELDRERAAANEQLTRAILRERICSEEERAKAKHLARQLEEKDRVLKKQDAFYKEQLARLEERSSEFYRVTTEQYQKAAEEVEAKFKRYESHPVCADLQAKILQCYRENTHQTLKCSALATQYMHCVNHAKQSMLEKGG

LGALS7B (human) = LGALS7B (human) (UniProt P47929); experiment: as above
Sequence of LGALS7B (human) (P47929 whole entry): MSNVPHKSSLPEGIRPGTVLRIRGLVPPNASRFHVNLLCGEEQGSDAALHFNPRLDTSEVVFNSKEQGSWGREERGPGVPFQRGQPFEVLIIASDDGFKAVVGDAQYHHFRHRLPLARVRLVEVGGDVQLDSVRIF

CCT3 (human) = CCT3 (human) (UniProt P49368); experiment: as above
Sequence of CCT3 (human) (P49368 whole entry): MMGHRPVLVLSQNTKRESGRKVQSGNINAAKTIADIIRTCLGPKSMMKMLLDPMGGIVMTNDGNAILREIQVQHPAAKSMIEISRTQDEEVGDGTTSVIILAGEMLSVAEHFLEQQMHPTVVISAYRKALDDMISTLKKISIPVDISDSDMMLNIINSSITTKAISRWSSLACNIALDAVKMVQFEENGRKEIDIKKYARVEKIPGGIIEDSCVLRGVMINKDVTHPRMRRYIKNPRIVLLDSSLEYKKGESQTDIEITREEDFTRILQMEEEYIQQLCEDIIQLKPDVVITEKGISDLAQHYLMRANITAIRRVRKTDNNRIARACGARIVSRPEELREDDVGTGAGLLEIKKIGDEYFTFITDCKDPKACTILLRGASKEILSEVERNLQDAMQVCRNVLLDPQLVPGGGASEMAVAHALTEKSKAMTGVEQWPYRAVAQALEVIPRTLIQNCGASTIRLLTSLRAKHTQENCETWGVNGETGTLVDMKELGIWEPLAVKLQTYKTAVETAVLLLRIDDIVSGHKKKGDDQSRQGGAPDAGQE

Sequence of CAPRIN1 (human) (Q14444 2-709 limits assumed): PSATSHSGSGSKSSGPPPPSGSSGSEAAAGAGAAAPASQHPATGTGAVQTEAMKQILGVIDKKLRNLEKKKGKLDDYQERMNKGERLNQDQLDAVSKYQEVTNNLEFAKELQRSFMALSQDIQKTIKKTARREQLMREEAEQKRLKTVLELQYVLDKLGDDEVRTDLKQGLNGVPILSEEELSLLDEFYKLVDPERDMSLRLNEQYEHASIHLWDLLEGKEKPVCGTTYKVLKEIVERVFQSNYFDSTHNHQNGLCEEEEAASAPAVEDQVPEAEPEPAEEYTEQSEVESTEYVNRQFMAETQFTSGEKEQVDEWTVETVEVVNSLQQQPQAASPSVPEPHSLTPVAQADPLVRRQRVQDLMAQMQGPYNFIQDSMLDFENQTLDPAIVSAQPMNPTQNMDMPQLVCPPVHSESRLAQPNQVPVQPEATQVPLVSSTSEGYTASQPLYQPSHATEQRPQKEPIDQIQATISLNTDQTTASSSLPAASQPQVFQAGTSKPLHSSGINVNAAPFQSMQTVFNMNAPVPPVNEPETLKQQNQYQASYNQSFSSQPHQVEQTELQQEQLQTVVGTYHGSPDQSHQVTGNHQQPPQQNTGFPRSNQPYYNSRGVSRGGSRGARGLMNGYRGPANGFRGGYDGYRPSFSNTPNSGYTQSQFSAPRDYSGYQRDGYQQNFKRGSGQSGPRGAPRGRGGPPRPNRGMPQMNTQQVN

Which results are given for “IgG control (Millipore Sigma 12-371) (antibody)”?
co-IP mass spectrometry count (N-term IgG) (KHDRBS1 (human)): 10; co-IP mass spectrometry count (N-term IgG) (PABPC1 (human)): 37; co-IP mass spectrometry count (N-term IgG) (CAPRIN1 (human)): 6; co-IP mass spectrometry count (N-term IgG) (EIF3I (human)): 0; co-IP mass spectrometry count (N-term IgG) (ANXA2 (human)): 15; co-IP mass spectrometry count (N-term IgG) (SUPT16H (human)): 0; co-IP mass spectrometry count (FLG (human)): 20; co-IP mass spectrometry count (GSN (human)): 0; co-IP mass spectrometry count (TPM3 (human)): 5; co-IP mass spectrometry count (RACK1 (human)): 0; co-IP mass spectrometry count (RPL23 (human)): 5; co-IP mass spectrometry count (TELO2 (human)): 0; co-IP mass spectrometry count (YBX1 (human)): 3; co-IP mass spectrometry count (MAP4 (human)): 0; co-IP mass spectrometry count (DDX1 (human)): 2; co-IP mass spectrometry count (GEMIN4 (human)): 0; co-IP mass spectrometry count (SYNM (human)): 5; co-IP mass spectrometry count (RPS26 (human)): 4; co-IP mass spectrometry count (TBL2 (human)): 0; co-IP mass spectrometry count (RPS27A (human)): 11; co-IP mass spectrometry count (DHX9 (human)): 0; co-IP mass spectrometry count (SYNCRIP (human)): 6; co-IP mass spectrometry count (RPL8 (human)): 3; co-IP mass spectrometry count (YTHDF2 (human)): 4; co-IP mass spectrometry count (HNRNPM (human)): 5; co-IP mass spectrometry count (RHOT2 (human)): 0; co-IP mass spectrometry count (S100A7 (human)): 2; co-IP mass spectrometry count (EIF3A (human)): 3; co-IP mass spectrometry count (EMILIN1 (human)): 0; co-IP mass spectrometry count (CHCHD3 (human)): 10; co-IP mass spectrometry count (LGALS7B (human)): 4; co-IP mass spectrometry count (CCT3 (human)): 0
